*1 amine or outer side, *2 acyl side, *3 side chain or, on linkers, in order; H or OH if unused. Bridges are numbered along the chain shown (N, C = ends). Where no end group is shown, it is not given here. [ ]: non-standard residue; d: D form. dStyrA = (R)-styryl-alanine, (D)-StyrA, O=C([C@@H](C/C=C/c1ccccc1)N[*:1])[*:2]; S6H = (2S)-2-aminooct-7-enoic acid, C=CCCCC[C@H](N[*:1])C(=O)[*:2]; S7H3 = (2S)-2-aminononanoic acid, CCCCCCC[C@H](N[*:1])C(=O)[*:2]; Leu(5,5,5,5',5',5'-F6) = N[C@@H](CC(C(F)(F)F)C(F)(F)F)C(=O)O; dNle(6-ylidene) = O=C([C@@H](CCCC=[*:3])N[*:1])[*:2]; Ala(E-styryl) = N[C@@H](C/C=C/c1ccccc1)C(=O)O; Gly(oct-7-en-1-yl) = C=CCCCCCC[C@H](N)C(=O)O; dGly(6-heptenyl) = C=CCCCCC[C@@H](N)C(=O)O; Ala(5-hexenyl) = C=CCCCCC[C@H](N)C(=O)O; Gla = N[C@@H](CC(C(=O)O)C(=O)O)C(=O)O; S8H3 = not defined here; R5H = not defined here; Aib = CC(C)(N)C(=O)O
B1: CONS[E^4, Q^11, S8H3^13,] (peptide)
peptide: Ac-PVLEEFREKLQE[S8H3]LEALKQKLK
modifications: not fully specified (C-terminus); printed as PVLEEFREKLQES8H3LEALKQKLK; reading uncertain; also: calls X13 alkenyl side chain-substituted amino acid

Target: ATP-binding cassette transporter A1 (ABCA1) (mouse, UniProt P41233 1-2261)
Sequence (P41233 whole entry): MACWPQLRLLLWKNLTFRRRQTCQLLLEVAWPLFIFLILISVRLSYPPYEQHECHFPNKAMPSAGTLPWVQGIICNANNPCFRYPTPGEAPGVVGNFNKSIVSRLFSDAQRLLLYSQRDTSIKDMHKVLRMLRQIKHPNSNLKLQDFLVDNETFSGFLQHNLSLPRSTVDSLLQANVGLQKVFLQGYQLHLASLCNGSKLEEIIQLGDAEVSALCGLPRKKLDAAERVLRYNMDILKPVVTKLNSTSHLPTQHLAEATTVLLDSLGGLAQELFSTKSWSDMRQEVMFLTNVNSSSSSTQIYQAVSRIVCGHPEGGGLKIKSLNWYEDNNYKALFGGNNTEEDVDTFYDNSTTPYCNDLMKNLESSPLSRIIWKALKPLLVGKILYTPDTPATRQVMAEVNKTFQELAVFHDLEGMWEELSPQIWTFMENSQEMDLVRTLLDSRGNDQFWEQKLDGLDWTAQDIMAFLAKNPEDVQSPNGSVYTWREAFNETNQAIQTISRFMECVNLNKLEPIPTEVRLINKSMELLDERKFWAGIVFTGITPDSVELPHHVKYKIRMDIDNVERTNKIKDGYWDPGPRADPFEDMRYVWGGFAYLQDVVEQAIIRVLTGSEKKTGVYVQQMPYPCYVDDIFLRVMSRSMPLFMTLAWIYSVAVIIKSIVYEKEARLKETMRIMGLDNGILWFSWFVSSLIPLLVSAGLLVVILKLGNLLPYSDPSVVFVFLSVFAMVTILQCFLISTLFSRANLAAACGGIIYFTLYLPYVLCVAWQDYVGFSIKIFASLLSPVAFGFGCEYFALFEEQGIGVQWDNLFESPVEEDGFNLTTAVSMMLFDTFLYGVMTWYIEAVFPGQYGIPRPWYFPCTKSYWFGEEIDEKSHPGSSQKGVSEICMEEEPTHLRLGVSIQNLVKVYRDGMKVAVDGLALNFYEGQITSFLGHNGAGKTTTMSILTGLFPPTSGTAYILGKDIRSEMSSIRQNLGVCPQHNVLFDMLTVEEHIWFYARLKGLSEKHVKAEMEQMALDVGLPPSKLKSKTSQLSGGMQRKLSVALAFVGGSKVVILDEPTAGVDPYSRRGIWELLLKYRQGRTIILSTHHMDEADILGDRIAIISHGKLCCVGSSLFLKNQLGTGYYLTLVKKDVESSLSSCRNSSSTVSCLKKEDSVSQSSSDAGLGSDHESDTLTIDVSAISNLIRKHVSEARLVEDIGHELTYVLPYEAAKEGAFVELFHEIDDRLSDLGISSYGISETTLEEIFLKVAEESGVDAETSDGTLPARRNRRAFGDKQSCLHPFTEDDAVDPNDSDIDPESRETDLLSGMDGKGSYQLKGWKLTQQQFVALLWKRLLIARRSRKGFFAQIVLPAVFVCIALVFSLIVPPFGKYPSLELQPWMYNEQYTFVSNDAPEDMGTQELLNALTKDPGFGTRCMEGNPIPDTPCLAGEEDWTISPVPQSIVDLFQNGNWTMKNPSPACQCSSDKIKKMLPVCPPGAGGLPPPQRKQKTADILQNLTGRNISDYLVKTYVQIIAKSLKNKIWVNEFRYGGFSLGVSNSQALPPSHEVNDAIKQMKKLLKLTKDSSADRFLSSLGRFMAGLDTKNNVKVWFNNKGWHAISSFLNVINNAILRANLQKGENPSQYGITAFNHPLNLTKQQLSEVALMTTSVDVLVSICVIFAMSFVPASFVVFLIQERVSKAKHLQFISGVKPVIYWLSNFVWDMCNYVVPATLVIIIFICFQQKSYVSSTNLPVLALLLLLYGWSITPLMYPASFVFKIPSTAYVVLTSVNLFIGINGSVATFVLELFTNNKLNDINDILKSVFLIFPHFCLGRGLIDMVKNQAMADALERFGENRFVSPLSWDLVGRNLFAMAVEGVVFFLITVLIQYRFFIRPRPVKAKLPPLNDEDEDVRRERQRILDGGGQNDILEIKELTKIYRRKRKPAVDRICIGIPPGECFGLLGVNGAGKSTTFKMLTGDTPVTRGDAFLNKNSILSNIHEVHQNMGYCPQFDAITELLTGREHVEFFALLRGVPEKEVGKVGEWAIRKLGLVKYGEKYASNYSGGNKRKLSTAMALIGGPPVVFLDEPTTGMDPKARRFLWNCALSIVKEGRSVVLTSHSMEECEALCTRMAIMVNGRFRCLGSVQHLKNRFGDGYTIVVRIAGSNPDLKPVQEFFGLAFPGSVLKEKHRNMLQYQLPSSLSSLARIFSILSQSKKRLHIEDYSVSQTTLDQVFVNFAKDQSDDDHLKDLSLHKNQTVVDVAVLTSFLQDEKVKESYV
Experiment: cell-based or functional assay

ABCA1-dependent cholesterol efflux EC50 [nM]	ABCA1-dependent cholesterol efflux, % at 100 uM [%]	ABCA1-dependent cholesterol efflux, % at 30 uM [%]	Binder
3200	–	–	Ac-P[Ala(5-hexenyl)]LDEFREKLNE[Ala(5-hexenyl)]LEALKQ[Ala(5-hexenyl)]LK [CONS[S7H^2,13,20]]
300	–	–	Ac-PVLEEFREKLQE[Gly(oct-7-en-1-yl)]LEALKQKLK (not fully specified (C-terminus)) [CONS[E^4, Q^11, S8H^13]]
236000	–	–	Ac-PVLDEFREKLNEELEALKQ[S6H]LK (not fully specified (C-terminus); printed as PVLDEFREKLNEELEALKQS6HLK) [CONS[S6H^20]]
1300	–	–	Ac-PVLDEFKEKLNE[Ala(5-hexenyl)]LEALKQKLK (not fully specified (C-terminus)) [CONS[K^7, S7H^13]]
1000	–	–	Ac-PVLDEFREKLNE[Ala(E-styryl)]LEALKQKLK (not fully specified (C-terminus)) [CONS[(S)STYRA^13]]
700	–	–	Ac-PVLDEFREKLNE[Ala(5-hexenyl)]L[Gla]ALKQKLK [CONS[S7H^13, GLA^15]]
–	1	–	Ac-PVLDEFREKLNEELEA[Ala(5-hexenyl)]KQKLK [CONS[S7H^17]]
600	–	–	Ac-PVLDEFREKLNE[Ala(5-hexenyl)]LEALKQ[Ala(5-hexenyl)]LK [CONS[S7H^13,20]]
1100	–	–	Ac-PVLDEFREKLNE[Leu(5,5,5,5',5',5'-F6)]LEALKQKLK (not fully specified (C-terminus)) [CONS[HF-LEU^,13]]
200	–	–	B1
1400	–	–	Ac-PVLDEFREKLNE[S6H]LEALKQKLK (not fully specified (C-terminus)) [CONS[S6H^13]]
–	1.4	–	Ac-PVLDEFREK[Ala(5-hexenyl)]NEELEALKQKLK [CONS[S7H^10]]
7200	–	–	Ac-PVLDEFREKLNE[dGly(6-heptenyl)]LEALKQKLK (not fully specified (C-terminus)) [CONS[R7H^13]]
200	–	–	Ac-PVLDE[Ala(5-hexenyl)]REKLNE[Ala(5-hexenyl)]LEALKQ[Ala(5-hexenyl)]LK [CONS[S7H^6,13,20]]
41000	–	–	Ac-PVLDEFREKLNE[Aib]L[Gla]ALKQKLK (not fully specified (C-terminus)) [GLA15/AIB13]
234000	–	–	Ac-PVLDEFREKLNEAL[Gla]ALKQKLK (not fully specified (C-terminus)) [GLA15/ALA13]
400	–	–	Ac-PVLDE[Gly(oct-7-en-1-yl)]REKLNE[Gly(oct-7-en-1-yl)]LEALKQKLK [CONS[S8H^6,13]]
22000	–	–	Ac-PVLDEFREKLNE[dStyrA]LEALKQKLK (not fully specified (C-terminus)) [CONS[(R)STYRA^13]]
–	6	–	Ac-PVLDEFREKLNE[Aib]LEALKQKLK (not fully specified (C-terminus)) [AIB13]
600	–	–	Ac-PVLDE[S8H3]REKLNE[S8H3]LEALKQKLK (reading uncertain) [CONS[S8H3^6,13]]
–	6.3	–	Ac-P[dGly(6-heptenyl)]LDEFREKLNEELEALKQKLK (not fully specified (C-terminus)) [CONS[R7H^2]]
100	–	–	Ac-P[Ala(5-hexenyl)]LDE[Ala(5-hexenyl)]REKLNE[Ala(5-hexenyl)]LEALKQKLK [CONS[S7H^2,6,13]]

ABCA1-dependent cholesterol efflux EC50 [nM]	ABCA1-dependent cholesterol efflux, % at 100 uM [%]	ABCA1-dependent cholesterol efflux, % at 30 uM [%]	Binder
200	–	–	Ac-PVLDE[Ala(E-styryl)]REKLNE[Ala(5-hexenyl)]LEALKQKLK [CON[(S)STYRA^6, S7H^13]]
500	–	–	PVLDEXREKLNEXLXALKQXLK (not fully specified; N-terminal acetyl (Ac-Pro); S7H at 6, 13 and 20; Gla at 15) [CONS[GLA^15, S7H^6,13,20]]
100	–	–	Ac-PVLDE[dGly(6-heptenyl)]REKLNE[Ala(5-hexenyl)]LEALKQ[Ala(5-hexenyl)]LK (not fully specified (C-terminus); printed as PVLDER7HREKLNES7HLEALKQS7HLK) [CONS[R7H^6, S7H^13,20]]
300	–	–	Ac-PVLDE[S7H3]REKLNE[S7H3]LEALKQKLK (not fully specified (C-terminus); printed as PVLDES7H3REKLNES7H3LEALKQKLK) [CONS[S7H3^6,13]]
300	–	–	Ac-PVLDE[Ala(5-hexenyl)]REKLNE[Ala(5-hexenyl)]LEALKQKLK [CONS[S7H^6,13]]
200	–	–	Ac-P[Ala(5-hexenyl)]LDE[dGly(6-heptenyl)]REKLNE[Ala(5-hexenyl)]LEALKQKLK (not fully specified (C-terminus)) [CONS[R7H^6, S7H^2,13]]
7700	–	–	PXLDEFREKLNEXLXALKQXLK (not fully specified; N-terminal acetyl (Ac-Pro); S7H at 2, 13 and 20; Gla at 15) [CONS[GLA^15, S7H^2,13,20]]
900	–	–	Ac-PVLDEFR[Gla]KLNE[Ala(5-hexenyl)]LEALKQKLK (not fully specified (C-terminus)) [CONS[GLA^8, S7H^13]]
–	–	< 2	Ac-PVLDEFREKLNE[R5H]LEA[R5H]KQKLK (staple 13-17; reading uncertain) [R5H [E13-L17]R5H CLOSED RING]
300	–	–	Ac-P[Ala(5-hexenyl)]LDEFREKLNE[Ala(5-hexenyl)]LEALKQKLK [CONS[S7H^2,13]]
44000	–	–	Ac-PVLDEFR[Gla]KLNE[Aib]LEALKQKLK (not fully specified (C-terminus)) [GLA8/AIB13]
–	1	–	Ac-P[S6H]LDEFREKLNEELEALKQKLK (not fully specified (C-terminus)) [CONS[S6H^2]]
–	1.4	–	Ac-PVLDEFRE[Ala(5-hexenyl)]LNEELEALKQKLK [CONS[S7H^9]]
300	–	–	Ac-PVLDEFREKLNE[S8H3]LEALKQKLK (reading uncertain) [CONS[S8H3^13]]
700	–	–	Ac-PVLEE[Ala(5-hexenyl)]REKLQE[Ala(5-hexenyl)]LEALKQKLK (not fully specified (C-terminus)) [CONS[E^4, S7H^6,13, Q^11]]
142000	–	–	Ac-PVLDEFR[Gla]KLNEALEALKQKLK (not fully specified (C-terminus)) [GLA8/ALA13]
600	–	–	Ac-PVLDEFREKLNE[S7H3]LEALKQKLK (not fully specified (C-terminus); printed as PVLDEFREKLNES7H3LEALKQKLK) [CONS[S7H3^13]]
600	–	–	Ac-PVLDEFREKLNE[Gly(oct-7-en-1-yl)]LEALKQKLK [CONS[S8H^13]]
–	1.4	–	Ac-PVLDEFREKLNEELEALKQ[dGly(6-heptenyl)]LK (not fully specified (C-terminus); printed as PVLDEFREKLNEELEALKQR7HLK) [CONS[R7H^20]]
–	4	–	Ac-PVLDE[Ala(5-hexenyl)]REKLNEELEALKQKLK [CONS[S7H^6]]
10000	–	–	Ac-PVLDEFRE[R5H]LNE[R5H]LEALKQKLK (staple 9-13; reading uncertain) [R5H [K9-E13]R5H CLOSED RING]
–	6.2	–	Ac-PVLDEFREKLNE[dNle(6-ylidene)]LEALKQKLK (not fully specified (C-terminus)) [CONS[R5H^13]]
